From patent publication US11726091B2, “Compositions and methods of diagnosing pancreatic cancer” (THE REGENTS OF THE UNIVERSITY OF CALIFORNIA, priority 2017, dated 2023) come the findings set out here.

Where a SMILES comes first, the peptide text is derived from it. Where no end group is shown, it is not given here. [ ]: non-standard residue; d: D form. The star is where a group is joined. Sta = CC(C)C[C@H](N)[C@@H](O)CC(=O)O; Isovaleryl = CC(C)CC(=O)*

The subject of assay [1] is protease activity of mucinous cyst fluid sample. Nature of the assay: MSP-MS analysis of protease inhibitor sensitivity in mucinous cyst fluid. The note with it: for number of mucinous-specific substrates whose cleavage was inhibited: 1 mM AEBSF, 2 mM 1,10-phenanthroline. It is filed as biochemical, human. As to the method:
(§1) The MSP-MS assay was performed as previously described (34). Cyst fluid was diluted to 100 μg/mL in assay buffer (either pH 7.5 phosphate buffer or pH 3.5 acetate buffer) and pre-incubated for 10 minutes. For analysis of protease inhibitor sensitivity, 1 mM AEBSF (Sigma, A8456), 2 μM E-64 (Sigma, E3132), 2 μM pepstatin (Sigma, P5318), 2 mM 1,10-phenanthroline (Sigma, 131337), or DMSO were included in pre-incubation. The 228 tetradecapeptide library was split into two pools and diluted in assay buffer to a concentration of 1 μM of each peptide. 75 μL of diluted cyst fluid and peptide pools were then combined and incubated at room temperature. 30 μL aliquots were removed after 15 and 60 minutes, protease activity quenched with 8 M guanidinium hydrochloride, and flash-frozen in liquid N2. For recombinant gastricsin (R&D Systems, 6186-AS), cathepsin D (R&D Systems, 1014-AS), and cathepsin E (R&D Systems, 1294-AS), the MSP-MS assay was performed as described above with slight modifications: 10 nM of recombinant protease in pH 3.5 acetate buffer was used and aliquots were removed after 15, 60, and 240 minutes.
(§2) Prior to peptide cleavage site identification by mass spectrometry, samples were desalted using C18 tips (Rainin). Mass spectrometry analysis was carried out with an LTQ Orbitrap XL mass spectrometer coupled to a 10,000 psi nanoACQUITY Ultra Performance Liquid Chromatography (UPLC) System (Waters) for peptide separation by reverse phase liquid chromatography (RPLC). Peptides were separated over a C18 column (Thermo) and eluted by applying a flow rate of 300 nL/min with a 65-minute linear gradient from 2-30% acetonitrile. Survey scans were recorded over a 325-1500 m/z range and the six most intense precursor ions were fragmented by collision-induced dissociation (CID) for MS/MS.
(§3) Raw mass spectrometry data was processed to generate peak lists using MSConvert. Peak lists were then searched in Protein Prospector v. 5.10.0 (35) against a custom database containing the sequences from the 228 tetradecapeptide library. Searches used a mass accuracy tolerance of 20 ppm for precursor ions and 0.8 Da for fragment ions. Variable modifications included N-terminal pyroglutamate conversion from glutamine or glutamate and oxidation of tryptophan, proline, and tyrosine. Searches were subsequently processed using the MSP-xtractor software (http://www.craiklab.ucsf.edu/extractor.html), which extracts the peptide cleavage site and spectral counts of the corresponding cleavage products. Spectral counts were used for the relative quantification of peptide cleavage products.

Assay [2] deals with cathepsin E and gastricsin protease activity in cyst fluid. The assay is described as follows: Pepstatin inhibition of fluorescent substrate cleavage by mucinous cyst fluid. The settings on record: fluid from a mucinous cyst, pre-incubation with 2 μM pepstatin; FIG. 11. It is filed as biochemical, human. As to the method:
All fluorescent protease activity assays were performed in triplicate in black, round-bottom 384 well plates. Assays were run for 1 hour in 15 μL of acetate buffer with 0.01% Tween. The pH of the acetate buffer was adjusted to promote activity of either aspartyl protease (pH 3.5 for the cathepsin E substrate and pH 2.0 for the gastricsin substrate). 10 μM of substrate was used for all assays (unless otherwise indicated) and was incubated with either 10 nM of recombinant protease or 50 μg/mL of cyst fluid protein. For kinetic analysis of gastricsin activity, the substrate concentration ranged from 0.1-25 μM. For analysis of inhibitor sensitivity, cyst fluid samples were pre-incubated with 2 μM of pepstatin. Fluorescent substrate cleavage was monitored with a Biotek Synergy HT plate reader using excitation and emission wavelengths of 328 nm and 393 nm, respectively. Selectivity of the recombinant proteases was assessed by comparing the initial velocity of substrate hydrolysis in relative fluorescent units per second (RFU/sec). For cyst fluid samples, the change in endpoint RFU was compared relative to wells that contained substrate, but no cyst fluid.

Assay [3] has as its target T1, Gastricsin (Homo sapiens, UniProt P20142).
T1 sequence (P20142 60-388): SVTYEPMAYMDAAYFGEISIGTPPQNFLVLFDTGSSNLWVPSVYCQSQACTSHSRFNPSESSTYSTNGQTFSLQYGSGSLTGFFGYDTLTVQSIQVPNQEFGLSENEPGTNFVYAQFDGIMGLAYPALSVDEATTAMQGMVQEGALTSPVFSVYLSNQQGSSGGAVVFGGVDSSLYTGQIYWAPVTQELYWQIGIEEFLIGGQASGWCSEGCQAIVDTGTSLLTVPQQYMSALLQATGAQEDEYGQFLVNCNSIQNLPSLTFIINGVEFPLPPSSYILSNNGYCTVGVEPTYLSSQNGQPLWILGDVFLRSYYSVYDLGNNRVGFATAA
Nature of the assay: Cleavage of peptide substrates by gastricsin (MSP-MS assay). The settings on record: Target Protease Gastricsin; for Relative Cleavage: relative to the most cleaved substrate (1.00). Type of assay: biochemical. Also noted: purchased R&D Systems 6186-AS. As for the experimental part: as §1, §2, §3

Assay [4] deals with T2, Cathepsin E (Homo sapiens, UniProt P14091).
T2 sequence (P14091 54-396): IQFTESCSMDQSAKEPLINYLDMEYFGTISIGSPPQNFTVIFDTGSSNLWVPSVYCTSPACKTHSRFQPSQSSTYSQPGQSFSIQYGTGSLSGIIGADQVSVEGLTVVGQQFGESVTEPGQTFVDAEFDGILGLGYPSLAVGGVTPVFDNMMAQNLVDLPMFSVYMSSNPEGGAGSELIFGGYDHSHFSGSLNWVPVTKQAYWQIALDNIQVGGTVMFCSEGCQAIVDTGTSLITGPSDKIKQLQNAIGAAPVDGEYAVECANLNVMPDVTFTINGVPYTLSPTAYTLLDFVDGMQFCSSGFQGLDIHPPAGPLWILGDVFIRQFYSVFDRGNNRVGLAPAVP
The assay is described as follows: Cleavage of peptide substrates by cathepsin E (MSP-MS assay). Type of assay: biochemical. Also noted: purchased R&D Systems 1294-AS. The note with it: Target Protease Cathepsin E; for Relative Cleavage: relative to the most cleaved substrate (1.00). As for the experimental part: as §1, §2, §3

The target of assay [5] is T2, Cathepsin E. Nature of the assay: Cathepsin E fluorescent substrate assay in patient cyst fluid, mucinous vs nonmucinous cysts. Details: both proteases are released into cyst fluid in their proforms; from tissue; host or cells: human pancreatic cyst fluid. The note with it: differentiating mucinous from nonmucinous cysts; 110 cyst fluid samples; cutoff 1.23-fold change in fluorescence. The text has this: (§4) Pancreatic cyst fluid samples were collected from preconsented patients under institutional review board oversight. All patients included in the study underwent surgical resection of their cystic lesion and have a pathologically confirmed diagnosis. The highest grade of dysplasia observed during pathological evaluation of each cystic lesion is reported. Samples were collected either at the time of surgical resection or during diagnostic endoscopic ultrasound prior to resection of the cystic lesion. Cyst fluid samples were split into 100 μL aliquots and frozen to −80° C. within 60 minutes of collection. Samples underwent at most two freeze-thaw cycles prior to experimental analysis. Total cyst fluid protein concentration was determined by the bicinchoninic acid assay. CEA levels were evaluated for the majority of samples, but were unavailable in 21 cases due to limited cyst fluid volume.
(§5) All fluorescent protease activity assays were performed in triplicate in black, round-bottom 384 well plates. Assays were run for 1 hour in 15 μL of acetate buffer with 0.01% Tween. […] Fluorescent substrate cleavage was monitored with a Biotek Synergy HT plate reader using excitation and emission wavelengths of 328 nm and 393 nm, respectively. Selectivity of the recombinant proteases was assessed by comparing the initial velocity of substrate hydrolysis in relative fluorescent units per second (RFU/sec). […]

The target of assay [6] is T2, Cathepsin E. Nature of the assay: Fluorescent protease activity assay with recombinant cathepsin E. It is filed as biochemical. Also noted: purchased R&D Systems 1294-AS. As for the experimental part:
(§6) Synthesis of internally quenched fluorescent peptides was conducted using Fmoc solid-phase peptide synthesis on a Syro II automated synthesizer (Biotage). Briefly, reactors were charged with Wang resin preloaded with Fmoc-Lys(dinitrophenol) (Anaspec, A23856). Coupling reactions were conducted on a 0.0125 mmol scale in 500 μL of DMF with 5 equivalents of Fmoc amino acid (Anaspec), 4.9 equivalents of HCTU (Anaspec), and 20 equivalents of N-methylmorpholine (NMM). Fmoc deprotection was conducted by incubation with 500 μL 40% 4-methlypiperidine in DMF, followed by 500 μL 20% 4-methlypiperidine in DMF. Substrates were capped with a […] Lys-(7-methoxycoumarin-4-acetic acid)-OH (EMD Millipore, 852095) followed by two D-Arg residues to enhance solubility. Peptides were removed from resin by incubating with 500 μL of cleavage solution (95% trifluoroacetic acid, 2.5% water, 2.5% Triisopropylsilane). […]
(§7) All fluorescent protease activity assays were performed in triplicate in black, round-bottom 384 well plates. […] Fluorescent substrate cleavage was monitored with a Biotek Synergy HT plate reader using excitation and emission wavelengths of 328 nm and 393 nm, respectively. Selectivity of the recombinant proteases was assessed by comparing the initial velocity of substrate hydrolysis in relative fluorescent units per second (RFU/sec). […]

The target of assay [7] is T1, Gastricsin. The assay is described as follows: Fluorescent protease activity assay with recombinant gastricsin. Type of assay: biochemical. Also noted: purchased R&D Systems 6186-AS. As to the method: as §6, §7
Assay [8] deals with T1, Gastricsin. The assay is described as follows: Gastricsin fluorescent substrate assay in patient cyst fluid, mucinous vs nonmucinous cysts. Also noted: both proteases are released into cyst fluid in their proforms; from tissue; host or cells: human pancreatic cyst fluid. The note with it: differentiating mucinous from nonmucinous cysts; 110 cyst fluid samples; cutoff 1.23-fold change in fluorescence.
Description: as §4, §5

The mark [9] stands for this setting: single mucinous cyst fluid sample, 2 μM pepstatin, FIG. 2A.
Where [10] appears, read: single mucinous cyst fluid sample, FIG. 2A.

As for `CC(C)CC(=O)N[C@H](C(=O)N[C@H](C(=O)N[C@@H](CC(C)C)[C@@H](O)CC(=O)N[C@@H](C)C(=O)N[C@@H](CC(C)C)[C@@H](O)CC(=O)O)C(C)C)C(C)C` [pepstatin] (Isovaleryl-VV[Sta]A[Sta]-OH), the “effect on cleavage of the mucinous-specific substrates” value in assay [1] (second mucinous cyst fluid sample, FIG. 8) was “block cleavage of the majority of the mucinous-specific substrates”. In addition, in assay [1] (setting [9]), the “number of additional mucinous-specific substrates whose cleavage was partially inhibited” value amounted to 8 substrates and the “number of mucinous-specific substrates whose cleavage was fully inhibited” value was 20 substrates. In addition, the “inhibition of cleavage of gastricsin and cathepsin E fluorescent substrates” value in assay [2] is “fully inhibited”.
Regarding “PWTWYGVK [PWTW|YGVK, gastricsin peptide substrate]”, in the assay with Gastricsin [3], the “Total Cleavage” value was determined as 64 and the “Relative Cleavage” value stood at 1.00.
Consider “VGKWSYRM [VGKW|SYRM, gastricsin peptide substrate]”, for which, in the assay with Gastricsin [3], the “Total Cleavage” value was found to be 22 and the “Relative Cleavage” value is listed as 0.34.
Take “IKILMFYW [IKIL|MFYW, cathepsin E peptide substrate]”: in the assay with Cathepsin E [4], the “Total Cleavage” value is listed as 17 and the “Relative Cleavage” value was 0.68.
For the compound “NMKWTRVL [NMKW|TRVL, gastricsin peptide substrate]”, in the assay with Gastricsin [3], the “Total Cleavage” value turned out to be 21 and the “Relative Cleavage” value was 0.33.
`Cl.NCCc1ccc(S(=O)(=O)F)cc1` [AEBSF]: in assay [1] (setting [10]), the “number of mucinous-specific substrates whose cleavage was inhibited” value was determined as 3 substrates.
On to “AGFSLPA (also: fluorophore/quencher) [AGFSL|PA]”, for which, in the assay with Cathepsin E [5], the Sensitivity was 70% and the Specificity was 92%. For the same compound, in the assay with Cathepsin E [6] (fluorescence-based activity assay, FIG. 17), the “limit-of-detection of cathepsin E” value was “approximately 4 μg/mL”. In addition, in the assay with Cathepsin E [6] (initial velocity of substrate hydrolysis, 10 nM recombinant protease, 10 μM substrate), the “selectivity for cathepsin E over both cathepsin D and gastricsin” value is on record as “more than 100 fold”.
Take “GLYFRYE [GLY|FRYE, cathepsin E peptide substrate]”: in the assay with Cathepsin E [4], the “Total Cleavage” value amounted to 25 and the “Relative Cleavage” value is reported as 1.00.
On to “FGIFYLNG [FGIF|YLNG, cathepsin E peptide substrate]”, for which, in the assay with Cathepsin E [4], the “Total Cleavage” value was found to be 22 and the “Relative Cleavage” value came out at 0.88.
For “HMIALYWG [HMIA|LYWG, cathepsin E peptide substrate]”, in the assay with Cathepsin E [4], the “Total Cleavage” value was 10 and the “Relative Cleavage” value is 0.40.
“DEGWALQH (also: fluorophore and quencher) [DEGW|ALQH]”: in the assay with Gastricsin [3], the “Total Cleavage” value is on record as 30 and the “Relative Cleavage” value is recorded as 0.47. Further, the limit-of-detection of gastricsin entry in the assay with Gastricsin [7] (fluorescence-based activity assay, FIG. 16) was “approximately 600 ng/mL”. Further, the “selectivity for gastricsin over both cathepsins D and E” value with Gastricsin [7] (initial velocity of substrate hydrolysis, 10 nM recombinant protease, 10 μM substrate (FIG. 4D)) is given as “greater than 120 fold”. Further, in the assay with Gastricsin [8], the Sensitivity was 93% and the Specificity came to 100%.
In the case of `c1cnc2c(c1)ccc1cccnc12` [1,10-phenanthroline], the “number of mucinous-specific substrates whose cleavage was inhibited” value in assay [1] (setting [10]) amounted to 3 substrates.
